molecular target: HLA-A*02:01 (Homo sapiens, UniProt P04439, D140Y/D185E/D98H/E176V/E277Q/G131W/G231S/I119V/I121R/I166T/I218V/L300P/L318F/N151K/N90K/P208A/P217A/Q86G/Q94H/R138H/R169H/T345S); assay: MHC binding assay (UV-ligand exchange, ELISA of exchange yield); details: binding to HLA-A*02:01, UV-ligand exchange
In short: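 Peptide–MHC complexes made by UV-ligand exchange, where a UV-cleavable peptide is replaced by the test peptide. Exchange yield measured by ELISA: complexes diluted 100-fold on streptavidin-coated plates, stabilized complexes detected with HRP anti-β2m, TMB read at 450 nm.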

| Substance | Peptide exchange (MHC class I binding score, peptide exchange yield) |
| --- | --- |
| 522 (TLWYRSPEV; listed as Homo sapiens) [compound 522] | “++” (≥20% = ++) |
| 23 (VLLDDIFAQL; listed as Homo sapiens) [compound 23] | “+++” (≥50 = +++) |
| 189 (ALQRKLPYV; listed as Homo sapiens) [compound 189] | “+++” (≥50 = +++) |
| 489 (KMWEELPEVV; listed as Homo sapiens) [compound 489] | “+++” (≥50 = +++) |
| 349 (SLTEYLQNV; listed as Homo sapiens) [compound 349] | “++++” (≥75% = ++++) |
| 369 (GLFPEHLIDV; listed as Homo sapiens) [compound 369] | “+++” (≥50 = +++) |
| 587 (VMNDRLYAI; listed as Homo sapiens) [compound 587] | “+++” (≥50 = +++) |
| 403 (KLYDRILRV; listed as Homo sapiens) [compound 403] | “++” (≥20% = ++) |
| 207 (GLTSTNAEV; listed as Homo sapiens) [compound 207] | “++” (≥20% = ++) |
| 99 (ALVSKGLATV; listed as Homo sapiens) [compound 99] | “++” (≥20% = ++) |
| 87 (ALPEAPAPLLPHIT; listed as Homo sapiens) [compound 87] | “++” (≥20% = ++) |
| 126 (VLAYFLPEA; listed as Homo sapiens) [compound 126] | “++++” (≥75% = ++++) |
| 262 (LLWGDLIWL; listed as Homo sapiens) [compound 262] | “+++” (≥50 = +++) |
| 271 (LVYPLELYPA; listed as Homo sapiens) [compound 271] | “+++” (≥50 = +++) |
| 117 (ILPDGEDFLAV; listed as Homo sapiens) [compound 117] | “+++” (≥50 = +++) |
| 146 (SLATAGDGLIEL; listed as Homo sapiens) [compound 146] | “++” (≥20% = ++) |
| 255 (VLASYNLTV; listed as Homo sapiens) [compound 255] | “+++” (≥50 = +++) |
| 171 (LLLPLQILL; listed as Homo sapiens) [compound 171] | “+++” (≥50 = +++) |
| 151 (KILQQLVTL; listed as Homo sapiens) [compound 151] | “+++” (≥50 = +++) |
| 557 (KLYDDMIRL; listed as Homo sapiens) [compound 557] | “+++” (≥50 = +++) |
| 316 (ILLERLWYV; listed as Homo sapiens) [compound 316] | “+++” (≥50 = +++) |
| 284 (ILLSQTTGV; listed as Homo sapiens) [compound 284] | “+++” (≥50 = +++) |
| 519 (GLLHLTLLL; listed as Homo sapiens) [compound 519] | “+++” (≥50 = +++) |
| 374 (FLLQQHLISA; listed as Homo sapiens) [compound 374] | “++” (≥20% = ++) |
| 142 (FLFATPVFI; listed as Homo sapiens) [compound 142] | “+++” (≥50 = +++) |
| 26 (ALLELAEEL; listed as Homo sapiens) [compound 26] | “+++” (≥50 = +++) |
| 128 (YLFDDPLSAV; listed as Homo sapiens) [compound 128] | “++” (≥20% = ++) |
| 464 (ALNDCIYSV; listed as Homo sapiens) [compound 464] | “+++” (≥50 = +++) |
